Reference: patent US20130315910A1
Each block holds one substance with its values, some of them ahead of it.

Columns and labels:
Test in all cases: SPR
mFcγRIIb (Mus musculus) = mFcγRIIb (Mus musculus) (UniProt P08101)
[1] = molecular target: cynoFcγRIIb (Macaca fascicularis)
mFcγRIV = molecular target: T1, mFcγRIV
T1 sequence: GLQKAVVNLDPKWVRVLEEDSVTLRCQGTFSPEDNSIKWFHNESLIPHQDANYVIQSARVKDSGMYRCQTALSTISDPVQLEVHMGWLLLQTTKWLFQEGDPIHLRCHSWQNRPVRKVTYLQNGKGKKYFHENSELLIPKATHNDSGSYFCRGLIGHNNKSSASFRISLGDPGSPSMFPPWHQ

[2] = molecular target: human FcγRIIa (131H), His- and GST-tagged (human) (UniProt P12318)
[3] = molecular target: human FcγRI receptor protein (R&D Systems) (human) (UniProt P12314)
[4] = molecular target: human FcγRIIa (131R), His- and GST-tagged (human) (UniProt P12318)
[5] = molecular target: human FcγRIIb receptor protein (R&D Systems) (human) (UniProt P31994)
human FcγRIIb receptor protein (R&D Systems) (human), sequence (P31994 46-217 limits assumed): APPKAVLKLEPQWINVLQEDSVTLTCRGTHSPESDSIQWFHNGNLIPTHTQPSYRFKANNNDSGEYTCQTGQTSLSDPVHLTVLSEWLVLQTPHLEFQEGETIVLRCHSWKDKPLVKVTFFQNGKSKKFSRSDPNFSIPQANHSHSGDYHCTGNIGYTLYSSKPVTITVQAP

human FcγRIIa (131H), His- and GST-tagged (human), sequence (P12318 34-217): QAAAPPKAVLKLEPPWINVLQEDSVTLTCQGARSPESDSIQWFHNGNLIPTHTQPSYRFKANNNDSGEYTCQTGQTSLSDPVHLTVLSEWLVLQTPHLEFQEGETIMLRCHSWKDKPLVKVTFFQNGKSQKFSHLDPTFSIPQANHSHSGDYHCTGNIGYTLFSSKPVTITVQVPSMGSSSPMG
human FcγRI receptor protein (R&D Systems) (human), sequence (P12314 16-288 limits assumed): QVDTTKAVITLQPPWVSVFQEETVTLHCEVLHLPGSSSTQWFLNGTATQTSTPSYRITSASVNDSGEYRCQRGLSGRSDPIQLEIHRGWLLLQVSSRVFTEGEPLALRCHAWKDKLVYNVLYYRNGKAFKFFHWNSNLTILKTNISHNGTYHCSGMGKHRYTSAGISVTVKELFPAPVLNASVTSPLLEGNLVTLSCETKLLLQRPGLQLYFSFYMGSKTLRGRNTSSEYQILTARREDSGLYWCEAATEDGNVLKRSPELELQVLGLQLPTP
human FcγRIIa (131R), His- and GST-tagged (human), sequence (P12318 34-217 H167R): as the sequence (P12318 34-217) above, with H134R counted along it
mFcγRIIb (Mus musculus), sequence (P08101 30-210): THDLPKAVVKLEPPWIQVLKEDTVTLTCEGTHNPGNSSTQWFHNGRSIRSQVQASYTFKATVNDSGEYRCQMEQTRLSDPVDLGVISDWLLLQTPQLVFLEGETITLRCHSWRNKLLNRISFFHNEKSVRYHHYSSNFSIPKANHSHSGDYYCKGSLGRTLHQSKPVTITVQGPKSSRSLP

- Fold vs WT IgG1 (off-rate) (mFcγRIIb (Mus musculus)): 0 fold
- Fold vs WT IgG1 (off-rate) [1]: 0 fold
Substance: S267D/A327D (antibody)

- Fold vs WT IgG1 (Kd) (mFcγRIV): 0.026 fold
Substance: S267E/L328Y (antibody)

- Fold vs WT IgG1 (off-rate) (mFcγRIV): 1.23 fold
Substance: V266M (antibody)

- Fold vs WT IgG1 [2]: 0.993 fold
- Kd [2]: 651 nM
- Fold vs WT IgG1 [3]: 2.35 fold
- Kd [3]: 0.14 nM
- Fold vs WT IgG1 [4]: 269 fold
- Kd [4]: 3.19 nM
- Fold vs WT IgG1 [5]: 221 fold
- Kd [5]: 6.63 nM
Substance: anti-CD19 antibody IgG1/2 ELLGG S267E/L328F
